Measured values from publication doi:10.1101/2024.12.12.628227 (bioRxiv, 2024).

Biological target: human AXL Ig1 domain fused to human Fc (Homo sapiens, UniProt P30530)
Assay: BLI

| Binder | binding result |
| --- | --- |
| parental scFv-osmY fusion protein (tilvestamab scFv) (scFv, V domains shown) VH: EVQLVESGGGLVQPGGSLRLSCAASGYSFTDFYINWVRQAPGKGLEWVARIFPGGDNTYYNEKFKGRFTLSADTSKSTAYLQMNSLRAEDTAVYYCARRGLYYAMDYWGQGTLVTVSS VL: DIQMTQSPSSLSASVGDRVTITCRSSQSLVHSNGIPYLHWYQQKPGKAPKLLIYRVSNRFSGVPSRFSGSGSGTDFTLTISSLQPEDFATYYCSQGTHVPPTFGQGTKVEIK | binds |
| tilvestamab scFv-osmY F33S (scFv, V domains shown) VH: EVQLVESGGGLVQPGGSLRLSCAASGYSFTDSYINWVRQAPGKGLEWVARIFPGGDNTYYNEKFKGRFTLSADTSKSTAYLQMNSLRAEDTAVYYCARRGLYYAMDYWGQGTLVTVSS VL: DIQMTQSPSSLSASVGDRVTITCRSSQSLVHSNGIPYLHWYQQKPGKAPKLLIYRVSNRFSGVPSRFSGSGSGTDFTLTISSLQPEDFATYYCSQGTHVPPTFGQGTKVEIK | binds |
| tilvestamab scFv-osmY D32A (scFv, V domains shown) VH: EVQLVESGGGLVQPGGSLRLSCAASGYSFTAFYINWVRQAPGKGLEWVARIFPGGDNTYYNEKFKGRFTLSADTSKSTAYLQMNSLRAEDTAVYYCARRGLYYAMDYWGQGTLVTVSS VL: DIQMTQSPSSLSASVGDRVTITCRSSQSLVHSNGIPYLHWYQQKPGKAPKLLIYRVSNRFSGVPSRFSGSGSGTDFTLTISSLQPEDFATYYCSQGTHVPPTFGQGTKVEIK | binds |
| tilvestamab scFv-osmY L102Y (scFv, V domains shown) VH: EVQLVESGGGLVQPGGSLRLSCAASGYSFTDFYINWVRQAPGKGLEWVARIFPGGDNTYYNEKFKGRFTLSADTSKSTAYLQMNSLRAEDTAVYYCARRGYYYAMDYWGQGTLVTVSS VL: DIQMTQSPSSLSASVGDRVTITCRSSQSLVHSNGIPYLHWYQQKPGKAPKLLIYRVSNRFSGVPSRFSGSGSGTDFTLTISSLQPEDFATYYCSQGTHVPPTFGQGTKVEIK | binds |
| tilvestamab scFv-osmY F33T (scFv, V domains shown) VH: EVQLVESGGGLVQPGGSLRLSCAASGYSFTDTYINWVRQAPGKGLEWVARIFPGGDNTYYNEKFKGRFTLSADTSKSTAYLQMNSLRAEDTAVYYCARRGLYYAMDYWGQGTLVTVSS VL: DIQMTQSPSSLSASVGDRVTITCRSSQSLVHSNGIPYLHWYQQKPGKAPKLLIYRVSNRFSGVPSRFSGSGSGTDFTLTISSLQPEDFATYYCSQGTHVPPTFGQGTKVEIK | binds |
| tilvestamab scFv-osmY M106A (scFv, V domains shown) VH: EVQLVESGGGLVQPGGSLRLSCAASGYSFTDFYINWVRQAPGKGLEWVARIFPGGDNTYYNEKFKGRFTLSADTSKSTAYLQMNSLRAEDTAVYYCARRGLYYAADYWGQGTLVTVSS VL: DIQMTQSPSSLSASVGDRVTITCRSSQSLVHSNGIPYLHWYQQKPGKAPKLLIYRVSNRFSGVPSRFSGSGSGTDFTLTISSLQPEDFATYYCSQGTHVPPTFGQGTKVEIK | binds |
| tilvestamab scFv-osmY Y108A (scFv, V domains shown) VH: EVQLVESGGGLVQPGGSLRLSCAASGYSFTDFYINWVRQAPGKGLEWVARIFPGGDNTYYNEKFKGRFTLSADTSKSTAYLQMNSLRAEDTAVYYCARRGLYYAMDAWGQGTLVTVSS VL: DIQMTQSPSSLSASVGDRVTITCRSSQSLVHSNGIPYLHWYQQKPGKAPKLLIYRVSNRFSGVPSRFSGSGSGTDFTLTISSLQPEDFATYYCSQGTHVPPTFGQGTKVEIK | binds |
| tilvestamab scFv-osmY Y103A (scFv, V domains shown) VH: EVQLVESGGGLVQPGGSLRLSCAASGYSFTDFYINWVRQAPGKGLEWVARIFPGGDNTYYNEKFKGRFTLSADTSKSTAYLQMNSLRAEDTAVYYCARRGLAYAMDYWGQGTLVTVSS VL: DIQMTQSPSSLSASVGDRVTITCRSSQSLVHSNGIPYLHWYQQKPGKAPKLLIYRVSNRFSGVPSRFSGSGSGTDFTLTISSLQPEDFATYYCSQGTHVPPTFGQGTKVEIK | binds |
| tilvestamab scFv-osmY L102A (scFv, V domains shown) VH: EVQLVESGGGLVQPGGSLRLSCAASGYSFTDFYINWVRQAPGKGLEWVARIFPGGDNTYYNEKFKGRFTLSADTSKSTAYLQMNSLRAEDTAVYYCARRGAYYAMDYWGQGTLVTVSS VL: DIQMTQSPSSLSASVGDRVTITCRSSQSLVHSNGIPYLHWYQQKPGKAPKLLIYRVSNRFSGVPSRFSGSGSGTDFTLTISSLQPEDFATYYCSQGTHVPPTFGQGTKVEIK | binds |
| tilvestamab scFv-osmY T31A (scFv, V domains shown) VH: EVQLVESGGGLVQPGGSLRLSCAASGYSFADFYINWVRQAPGKGLEWVARIFPGGDNTYYNEKFKGRFTLSADTSKSTAYLQMNSLRAEDTAVYYCARRGLYYAMDYWGQGTLVTVSS VL: DIQMTQSPSSLSASVGDRVTITCRSSQSLVHSNGIPYLHWYQQKPGKAPKLLIYRVSNRFSGVPSRFSGSGSGTDFTLTISSLQPEDFATYYCSQGTHVPPTFGQGTKVEIK | binds |
| tilvestamab scFv-osmY L102S (scFv, V domains shown) VH: EVQLVESGGGLVQPGGSLRLSCAASGYSFTDFYINWVRQAPGKGLEWVARIFPGGDNTYYNEKFKGRFTLSADTSKSTAYLQMNSLRAEDTAVYYCARRGSYYAMDYWGQGTLVTVSS VL: DIQMTQSPSSLSASVGDRVTITCRSSQSLVHSNGIPYLHWYQQKPGKAPKLLIYRVSNRFSGVPSRFSGSGSGTDFTLTISSLQPEDFATYYCSQGTHVPPTFGQGTKVEIK | binds |
| tilvestamab scFv-osmY I35A (scFv, V domains shown) VH: EVQLVESGGGLVQPGGSLRLSCAASGYSFTDFYANWVRQAPGKGLEWVARIFPGGDNTYYNEKFKGRFTLSADTSKSTAYLQMNSLRAEDTAVYYCARRGLYYAMDYWGQGTLVTVSS VL: DIQMTQSPSSLSASVGDRVTITCRSSQSLVHSNGIPYLHWYQQKPGKAPKLLIYRVSNRFSGVPSRFSGSGSGTDFTLTISSLQPEDFATYYCSQGTHVPPTFGQGTKVEIK | binds |
| tilvestamab scFv-osmY G233S (scFv, V domains shown) VH: EVQLVESGGGLVQPGGSLRLSCAASGYSFTDFYINWVRQAPGKGLEWVARIFPGGDNTYYNEKFKGRFTLSADTSKSTAYLQMNSLRAEDTAVYYCARRGLYYAMDYWGQGTLVTVSS VL: DIQMTQSPSSLSASVGDRVTITCRSSQSLVHSNGIPYLHWYQQKPGKAPKLLIYRVSNRFSGVPSRFSGSGSGTDFTLTISSLQPEDFATYYCSQSTHVPPTFGQGTKVEIK | binds |
| tilvestamab scFv-osmY F33Y (scFv, V domains shown) VH: EVQLVESGGGLVQPGGSLRLSCAASGYSFTDYYINWVRQAPGKGLEWVARIFPGGDNTYYNEKFKGRFTLSADTSKSTAYLQMNSLRAEDTAVYYCARRGLYYAMDYWGQGTLVTVSS VL: DIQMTQSPSSLSASVGDRVTITCRSSQSLVHSNGIPYLHWYQQKPGKAPKLLIYRVSNRFSGVPSRFSGSGSGTDFTLTISSLQPEDFATYYCSQGTHVPPTFGQGTKVEIK | binds |
| tilvestamab scFv-osmY L102T (scFv, V domains shown) VH: EVQLVESGGGLVQPGGSLRLSCAASGYSFTDFYINWVRQAPGKGLEWVARIFPGGDNTYYNEKFKGRFTLSADTSKSTAYLQMNSLRAEDTAVYYCARRGTYYAMDYWGQGTLVTVSS VL: DIQMTQSPSSLSASVGDRVTITCRSSQSLVHSNGIPYLHWYQQKPGKAPKLLIYRVSNRFSGVPSRFSGSGSGTDFTLTISSLQPEDFATYYCSQGTHVPPTFGQGTKVEIK | binds |
| tilvestamab scFv-osmY F33A (scFv, V domains shown) VH: EVQLVESGGGLVQPGGSLRLSCAASGYSFTDAYINWVRQAPGKGLEWVARIFPGGDNTYYNEKFKGRFTLSADTSKSTAYLQMNSLRAEDTAVYYCARRGLYYAMDYWGQGTLVTVSS VL: DIQMTQSPSSLSASVGDRVTITCRSSQSLVHSNGIPYLHWYQQKPGKAPKLLIYRVSNRFSGVPSRFSGSGSGTDFTLTISSLQPEDFATYYCSQGTHVPPTFGQGTKVEIK | binds |
| tilvestamab scFv-osmY G233A (scFv, V domains shown) VH: EVQLVESGGGLVQPGGSLRLSCAASGYSFTDFYINWVRQAPGKGLEWVARIFPGGDNTYYNEKFKGRFTLSADTSKSTAYLQMNSLRAEDTAVYYCARRGLYYAMDYWGQGTLVTVSS VL: DIQMTQSPSSLSASVGDRVTITCRSSQSLVHSNGIPYLHWYQQKPGKAPKLLIYRVSNRFSGVPSRFSGSGSGTDFTLTISSLQPEDFATYYCSQATHVPPTFGQGTKVEIK | binds |
| tilvestamab scFv-osmY P238A (scFv, V domains shown) VH: EVQLVESGGGLVQPGGSLRLSCAASGYSFTDFYINWVRQAPGKGLEWVARIFPGGDNTYYNEKFKGRFTLSADTSKSTAYLQMNSLRAEDTAVYYCARRGLYYAMDYWGQGTLVTVSS VL: DIQMTQSPSSLSASVGDRVTITCRSSQSLVHSNGIPYLHWYQQKPGKAPKLLIYRVSNRFSGVPSRFSGSGSGTDFTLTISSLQPEDFATYYCSQGTHVPATFGQGTKVEIK | binds |
| tilvestamab scFv-osmY G101A (scFv, V domains shown) VH: EVQLVESGGGLVQPGGSLRLSCAASGYSFTDFYINWVRQAPGKGLEWVARIFPGGDNTYYNEKFKGRFTLSADTSKSTAYLQMNSLRAEDTAVYYCARRALYYAMDYWGQGTLVTVSS VL: DIQMTQSPSSLSASVGDRVTITCRSSQSLVHSNGIPYLHWYQQKPGKAPKLLIYRVSNRFSGVPSRFSGSGSGTDFTLTISSLQPEDFATYYCSQGTHVPPTFGQGTKVEIK | binds |
| tilvestamab scFv-osmY Y103S (scFv, V domains shown) VH: EVQLVESGGGLVQPGGSLRLSCAASGYSFTDFYINWVRQAPGKGLEWVARIFPGGDNTYYNEKFKGRFTLSADTSKSTAYLQMNSLRAEDTAVYYCARRGLSYAMDYWGQGTLVTVSS VL: DIQMTQSPSSLSASVGDRVTITCRSSQSLVHSNGIPYLHWYQQKPGKAPKLLIYRVSNRFSGVPSRFSGSGSGTDFTLTISSLQPEDFATYYCSQGTHVPPTFGQGTKVEIK | binds |
